Data from the nanobody polyreactivity screen of Harvey et al. (2022).

Test: yeast display, Sf9 membrane polyspecificity reagent, FACS + sequencing; frameworks hold sequencing errors
How it was run: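 Polyreactivity labels are assigned by the sorting gate from which each nanobody was recovered. The gates were low and high (top ~1%), set on anti-HA fluorescence for expression and streptavidin fluorescence for reagent binding. Before sorting, galactose-induced (36–48 hours) yeast display cells were stained for 1 hour at 4 °C with 10% biotinylated, detergent-solubilized Sf9 membrane reagent.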

Row | Sequence | polyreactivity (PSR sort gate)
1 | QVQLVESGGGLVQAGGSLRLSCAASGSTFPNYPMGWNRQSPGKERELVAAITRSGRSTYYADSVKGRFTISRDNAKNTVYLQMNSLKPEDTGVYYCNAQHLARMDYWGQGTQVTVSS | high polyreactivity
2 | QVQLVESGGGLVQAGGSLRLSCAASGSIFNYNAMGWYRQAPGKERELVAGITTSGGSTYYADSVKGRFTISRDNAKKTVYLQMNSLKPEDTAVYYCAAYDYISSTYFLDDYWGQGTQVTVSS | low polyreactivity
3 | QVHLVESGGGLVQAGGSLRLSCAASGRIFSYYALGWSRQAPGKERELVAAISWSGSRTYYADSVKGRFTFSRDNAKNTVYFQMNSLKPEDTAVYYCDAEVWSTQGSATVQYDYCGQGTQVTVSS | high polyreactivity
4 | QVQLVESGGGLVQAGGSLRLSCAASGSTFYRYAMGWYRQAPGKEREFVAAISGSGGSTRYADSVKGRFTISRDNAKNTVYLQMNSLKPEDTAVYYCAARSRDGYITFDYWGQGTQVTVSS | high polyreactivity
5 | QVQLVESGGGLVQAGGSLRLSCAASGSIFRSYAMGWYRQAPGKERELVASITWRGGRTYYADSVKGRFTISRDNAKNTVYLQMNSLKPEDSAVYYCNVDVPGVRFEYWGQGTQVTVSS | low polyreactivity
6 | QVQLVESGGGLVQAGGSLRLSCAASGSIFYGYDMGWYRQAPGKERELVAAITIGGGTTYYADSVKGRFTISRDNAKNTVYLQMNSLKPEDTAVYYCAAEFYYTIYSNKVGYDYWGQGTQVTVSS | high polyreactivity
7 | QGQLVESGGGLVQAGGRLRLSCAASGYNFGSYAMGWYRQAPGKERELVAAISGGGSTNYADSVKGRFTISRDNAKNTVYLQMHSLKPEDTAVYYCAAYPYLYPLRFEEYDHWGQGTQVTVSS | low polyreactivity
8 | QVQLQESGGGLVQAGGSLRLSCSASGTISDSGLMGWYRQAPGKERELVAGISSGGITNDADSVNRRFTISRDNALFTVYLQMNSLKPEDTALYWGEGTQVTVSS | low polyreactivity
9 | QVQLVQAGGGLVQAGGILRLSCAASGRIFRLYTMGWYRQAPGKERELVAAINSSGGNTYYADSVKGRFTISRDNAKNNVNLQMNSLKPEDTAVYYCAAGWSYPVRNIYYDWGQGTQVTVSS | high polyreactivity
10 | QVQLVDSGGGLVQAGGSLRLICAASGRSFYNYAMGRYSEAPGKERELVAAIAGSGGSTYYADSEKGRVTISRDNAKNTGYLQMNSLKPEDTAVDYCSTSGPQYYSRNFDDWGQGTQVTVSS | low polyreactivity
11 | QLQLVESGAGLVQAGGSLRLSCAASGSTFTVYGMAWYRQAPGKERELVAAITYSGGSTYYADSVKGRFTISRDNAKHTVYLTMNSLKPEDTGVYYCAAAGSQYYRRWYDYWGQGTQVTVSS | low polyreactivity
12 | QVQLVESGGGLVQAGGSLRLSCAASGSTLYTYDMGWYRQAPGKERELVASISGSDGSTYYADSVKGRFTISRDNAKNTVYLQMNSLKPEDTAVYYCAVDSYQTGVYFYYVYWDFDLGYWGQGTQVTVSS | low polyreactivity
13 | QVQLVESGGGLVQAGGSLRLSCAASGFIFTTYGMGWYRQAPGKERELVAAISYRGDSTYYADSVKGRFTISRDNAKNTVYLQMNSLKPEDTAVYYCAADVTQKPYGLSHGQDAYDYWGQGTQVTVSS | low polyreactivity
14 | QVQLVESGGGLVQAGGRLRLSCADSGRTFYYYAMGWYRQAPGKERELVAAIRWRATSTFYADSVKGRFTISRDNAKNTVYLQMNSLKPEDTAVYYCATTGGYRLQAQKYYYWGQGTQVTLSS | high polyreactivity
15 | QVQLVESGGGLVQAGGSLRLSCAASGFIFNFYAMGWYRQAPGKERELVAAISRNGGSTYYADSVKGRFTISRDNAKNTVYLQMNSLKPEDTAVYYCNAVGSYGDFGYWGQGTQVTVSS | high polyreactivity
16 | QVQLVESGGGLVQAGGSLRLSCAASGFTFKGNAMGWKRPAPGKERELVAGISRSGRTYYADSVKGRFTISRDNAKNTVYLQMNSLKPEDTAVYYCNVVYTYWRYYRWREYDYWGQGTQVTVSS | high polyreactivity
17 | QVQLVESGGGLVQAGGSLRLSCAASGSTIYENAMGWYRQAPGKERELVAGISRGGGSTYYADSVKGRFTISRDNAKNTVYLQMNSLKPEDTAVYYCAAGSRVQGGYWGQGTQVTVSS | low polyreactivity
18 | QVQLVESGGGLVQAGGSLRLSCAASGSIFGINAMGWYRQAPGKERELVAAITWSGGSTFYADSVKGRFTISRDNAKNTVYLQMTRLKPEDTAVYYCAADSGREPKGPSRLTYWGQGTQVTVSS | high polyreactivity
19 | QVQLVESGGGLVQAGGSLRLSCAASGSIFGYNAMGWYRQAPGKEREFVASIRYRGGSTYYADSVKGRFTISRDNAKNTVYLQMNSLKPEDTAVYYSAAYWWGVSKRQYGYWGQGTQVTVSS | high polyreactivity
20 | QVQLVESGGGLVQAGGSLRLSCAASGSIFDVYTMGWSRQAPGKERELVAAISKRSGRTYYADSVKGRFTISRDNAKNTVYLQMNSLKPEDTAVYYCAARGYPTTAVTYDYWGQGTQVTVSS | low polyreactivity
21 | QVQLVESGGGLVQAGGSLRLSCAASGSTFAYYAMGWYRQAPGKERELVAGISGSGGSTYYADSVKGRFTISRDNAKNTVYLQLNSLKPEDTAVYYCAVVQRSKRTYPWYDYWGQGTQVTVSS | low polyreactivity

Row | Sequence | polyreactivity (PSR sort gate)
22 | QVQLVESGGGLVQAGGSLRLSCAASGRTFGYNAMGWYRQAPGKEREFVAAISGSGGRTYYADSVKGRFTISRDNAKNTVYLQMNSQKPEDTAVYYCAAGFGDGPGNGYYTRYSWDDDYWGQGTQVTVSS | low polyreactivity
23 | QVQLVESGGGLVHAGGSLRLSCAASGIIFQYYLMGSYRPAPGKERELVAAIDKSGGSTYYADSVKGRFTISRDNAKNTVYLQMNSLKPEDTAVYYCAATSYAHKYYGYFGAIKYEYWGQGTQVTVSS | low polyreactivity
24 | QVQLVESGGGLVQAGGSLRLSCAASGSIFVRNALGWYRQAPGKEREFVAIRFSGATTYYADSVKGRFTISRDNAKNTVYLQMNSLKPEDTAVYYCAAVARTYGRTSYYWGQGTQVTVSS | high polyreactivity
25 | QVQLVESGGGLVQAGGSLRLSCAASGRIFRYNAMGWYRQAPGKERELVADISKRGGSTYYADSVKGRFTISRDNAKNTVYLQMNSLKPEDTAVYYCNARNTYYVVANDYWGQGTQVTVSS | high polyreactivity
26 | QVQLVESGGGLVQAGGSLRLSCAASGFTFEIYAMGWYRQAPGKERELVAAITWSGGSTDYADSVKGRFTISRDNAKNSVYFQMNSLKPEDTAVYYCAAVTVQYVGYGYWGQGTQVTVSS | low polyreactivity
27 | QVQLVDSGGALVQAGGSLRLICAASGSTFIINAMGWYRQAPGKDRELVAAISGRGTRTYYADSVKGRFTISRDNAKNSVYLQMKSLKPEDTAVYYCNAVRSLSFTTEHDYWGQGTQVTVSS | high polyreactivity
28 | QVQLVESGGGLVQAGGSLRLSCAASGSTFFFNEMGWYRQAPGKEREVVAAITGRSGSTYYADSVKGRFTISRDNANNTDYLQMNSLKPEDNAVYYCAGDYSPWRSDFDYWGQGTQVTVSS | low polyreactivity
29 | QVQLVESGGGLVQAGGSLRLSCAASGYIFTYTMGWYRQAPGKERELVAAISKSGGSTYYADSVKGRFTLSRDNAKNTVYLQMNSLKPEDTAVYYCARRGRYYLYTDDYDYWGQGTQVTVSS | high polyreactivity
30 | QVQLVESGGGLVQAGGSLRLSCAASGSTFARYAMGWYRQAPGKERELVAAITWSGGSTYYADSVKGRFTISRDNAKNTVYLQMNSLKPEDTAVYYCAARRRVGYYWGQGTQVTVSS | high polyreactivity
31 | QVQLVESGGGLVQAGGSLRLSCAASGSTFYRYPMGWYRQAPGKEREFVAAISGSGGSTRYADSVKGRFTISRDNAKKTVYLQMNSLKPEDTAVYYCAARSRYGYITFDYWGQGTQVTVSS | high polyreactivity
32 | QVQLVESGGGLVQAGGSLRLSCAASGRTFANYAMGWYRQAPGKERELVAAISWSGGSTYYADSVKGRFTISRDNAKNSVYLQMNSLKPEDTAVYYCAALAGRAYGYGYWGQGTQVTVSS | high polyreactivity
33 | QVQLVESGGGLVQAGGSLRLSCAASGYTFGSSTMGWYRPAAGTERELVAAISNRGGPYYADAVKGRFTISRDNAKNTVYLQMNSLTPEDTAVYYCAVARRCGYDYWGQGTQVTVSS | high polyreactivity
34 | QVQLVESGGGLVQAGGSLRLSCAASGSTFYANVMGWYRQAPGKDRELVGAIEGSGGRTDYADSVKGRFTISRDNAKNTVYLQMHSLKPEDTAVYYCAKKRIVPVKQFGRDYNYWGQGTQVTVSS | high polyreactivity
35 | QVHLVVSGGGLVQAGGSLRLMCAASGSTFKYYVMGWYRQAPGKERELVAAISGSGGSKYYADSVKGRFTISRDNAKNTVYLQMNSLIPEDTAVYYCAAGRLRGPGYYFTFDYWGQGTQVTVSS | high polyreactivity
36 | QVQLLESGGGLVQAGGFLRLSCASSGSTFFIYAMGWYRPAPGKERELDAAISWSGGSTYYADSVKGRFTISPDKANNTVYLQMICLKPEYTAVYYCADESYYFDEYYWGQATQVTVSS | high polyreactivity
37 | QVQLVESGGGLVQAGGSLRLTSAASGRTFGTNPMGWYRQETGKERELVDAISRRGGSTYYADSVKARFTISRDNAKNTVNLQMNSLKPEDTAVYYCAKTIGLKHEDEYWGQGTQVTVSS | low polyreactivity
38 | QVQLVESGGGLVQAGGSLRLSCAASGFTFERYTMGWYIQAPGKERELVATISRRSGRTSYADSVKGRFTISRDNAKNTVYLQMNSLKPEDTEVYYCAVDYAYPDRYDYWGQGTQVTVSS | high polyreactivity
39 | QVQLVESGGGLVQAGGSLRLSCAASGFTFKVYAMGWYRQAPGKERELVAAISKSGGSTYYADSVKGRFTISRDNAMNTVYLQMNSLKPEDTAVDYCATGGYAYVYPYDYWGQGTQVTVSS | low polyreactivity
40 | QVQLVESVGRLVQAGGSLRLSCGASGRIFKWYAMGWFRQARGNERELVAAITSRGSTYYADSVKGRFTISRDNAKNTVYLQMNSLKPEDTAVYYCNRYVVHRRDDYWGQGTQVTVSS | high polyreactivity
41 | QVQLVESGGGLVQAGGSLRLSCAASGSTFTHYAMGWYRQAPGKERELVAAISSRGGSTYADSVKGRFTISRDNAKNTVYLQMNSLKPEDTAVYYCAARYRLYYYFRFDWGQGTQVTVSS | high polyreactivity
